Results on 167 variants are retold here after the RNAGym collection of RNA variant scans (doi:10.7554/elife.80360).

To fix the notation:
B1: Hammerhead Ribozyme (parent)
chain: ACCGGAUGUGCUUUCCGGUCUGAUGAGUCCGUGAGGACGAAACAG

The variants in the series derive from B1. In words: self-cleavage, relative activity (ratio to wild type); higher = more cleavage; co-transcriptional.
On to G17C A44U, for which the self-cleavage was determined as 0.414.
To G17C A44G belongs 0.664; to G17C A44C, 0.418.
For C16U G39C the value was 0.391; for C16U G39U, 0.378; for C16U G39A, 0.327.
Consider G17C C43G, for which the self-cleavage turned out to be 0.311.
To G17C C43A belongs 0.319.
To G17C C43U belongs 0.404; to C16A G36U, 0.434; to C16A G36C, 0.38.
For C16A G36A the value was 0.523; for C16G G35A, 0.459.
Turning to C16G G35U, the self-cleavage came to 0.472.
To C16G G35C belongs 0.44.
For C16G C30A the value was 0.712.
In the case of C16G C30U, the self-cleavage was found to be 0.899.
For C16G C30G the value was 0.473.
To C16G U32C belongs 0.717.
For C16G U32A the value was 1.03.
Regarding C16G U32G, the self-cleavage was determined as 0.882.
To C16U U32G belongs 1.
To C16U U32C belongs 0.879; to C16U U32A, 1.02.
For G17A A40G the value was 0.361; for G17A A40C, 0.347.
In the case of G17A A40U, the self-cleavage was 0.354.
To G17A U19C belongs 0.23.
For G17A U19A the value was 0.386.
For G17A U19G the value was 0.332.
C16U A34G: the self-cleavage stood at 1.08.
To C16U A34U belongs 0.755; to C16U A34C, 1.
To G17A A41C belongs 0.259.
For G17A A41G the value was 0.332; for G17A A41U, 0.347; for C16A G35C, 0.573.
As for C16A G35A, the self-cleavage stood at 0.727.
To C16A G35U belongs 0.563; to C16G G17C, 0.445; to C16G G17A, 0.532.
To C16G G17U belongs 0.681.
For C16G U28C the value was 0.269; for C16G U28A, 0.407.
For the variant C16G U28G, the self-cleavage amounted to 0.592.
For G17A A44C the value was 0.513.
For G17A A44U the value was 0.449.
On to G17A A44G, for which the self-cleavage is 0.742.
To C16G C20G belongs 0.317; to C16G C20A, 0.336; to C16G C20U, 0.408.
To C16U C20G belongs 0.307; to C16U C20A, 0.524; to C16U C20U, 0.651.
For G17C A23U the value was 0.326; for G17C A23G, 0.417; for G17C A23C, 0.327.
Take C16G U19A: the self-cleavage stood at 0.253.
For C16G U19G the value was 0.33; for C16G U19C, 0.344.
To C16U A41U belongs 0.264.
C16U A41G: the self-cleavage was 0.376.
To C16U A41C belongs 0.301; to C16G G45A, 0.533.
To C16G G45U belongs 0.467; to C16G G45C, 0.397.
For G17A A26G the value was 0.297; for G17A A26C, 0.272; for G17A A26U, 0.447.
Regarding C16U A26C, the self-cleavage was determined as 0.467.
For C16U A26G the value was 0.358; for C16U A26U, 0.816; for G17A A37C, 0.642.
G17A A37U: the self-cleavage came out at 0.528.
To G17A A37G belongs 0.604.
Take C16G U24C: the self-cleavage worked out at 0.942.
For C16G U24A the value was 0.751; for C16G U24G, 0.611; for G17A A42G, 0.327.
To G17A A42U belongs 0.396; to G17A A42C, 0.341; to G17A C43A, 0.372.
In the case of G17A C43G, the self-cleavage was 0.441.
To G17A C43U belongs 0.335.
Turning to C16G A44U, the self-cleavage came to 0.335.
To C16G A44C belongs 0.373; to C16G A44G, 1.18; to C16A U32G, 0.899.
Take C16A U32A: the self-cleavage came out at 1.07.
For C16A U32C the value was 1.09; for G17C A42G, 0.335.
For G17C A42C the value was 0.316.
For G17C A42U the value was 0.284.
As to C16U A40G, the self-cleavage stood at 0.294.
To C16U A40U belongs 0.301.
For C16U A40C the value was 0.507; for C16U G22U, 0.327.
To C16U G22C belongs 0.318.
Turning to C16U G22A, the self-cleavage is 0.386.
For C16G A42G the value was 0.346; for C16G A42U, 0.26.
To C16G A42C belongs 0.334; to G17C A41G, 0.388; to G17C A41U, 0.318.
For G17C A41C, the self-cleavage came to 0.272.
To C16U C29A belongs 0.586.
For C16U C29U the value was 0.988; for C16U C29G, 0.69.
To C16G A41U belongs 0.393.
With C16G A41C, the self-cleavage stood at 0.376.
For C16G A41G the value was 0.398.
To G17A A23C belongs 0.325; to G17A A23G, 0.306.
For G17A A23U the value was 0.315; for C16G C38G, 0.358; for C16G C38U, 0.619.
As for C16G C38A, the self-cleavage was 0.453.
To G17C C29A belongs 0.419.
Consider G17C C29G, for which the self-cleavage came out at 0.349.
To G17C C29U belongs 0.542; to C16G U21G, 0.278; to C16G U21C, 0.354.
For C16G U21A the value was 0.349; for C16U G27C, 0.783.
As to C16U G27U, the self-cleavage worked out at 0.551.
To C16U G27A belongs 0.858; to G17A G36A, 0.442.
To G17A G36C belongs 0.263; to G17A G36U, 0.418; to G17C C20G, 0.279.
For G17C C20U the value was 0.331.
G17C C20A: the self-cleavage turned out to be 0.313.
As for G17A C30A, the self-cleavage was 0.561.
For G17A C30U the value was 0.622; for G17A C30G, 0.476.
To C16G G22C belongs 0.284; to C16G G22A, 0.336.
C16G G22U: the self-cleavage worked out at 0.334.
For G17A G31C the value was 0.652; for G17A G31U, 0.788; for G17A G31A, 0.875.
For G17C G22A the value was 0.274; for G17C G22C, 0.326.
With G17C G22U, the self-cleavage came out at 0.284.
For C16G A26U the value was 0.433.
To C16G A26C belongs 0.305; to C16G A26G, 0.289; to C16U G25U, 0.356.
For C16U G25A the value was 0.338; for C16U G25C, 0.265.
Take G17A G22C: the self-cleavage turned out to be 0.319.
To G17A G22A belongs 0.315.
For G17A G22U the value was 0.345; for G17A U24A, 0.704.
Take G17A U24C: the self-cleavage was 0.88.
To G17A U24G belongs 0.592; to G17A G45A, 0.413.
For G17A G45C the value was 0.385.
With G17A G45U, the self-cleavage amounted to 0.411.
For G17C A34G the value was 0.436; for G17C A34C, 0.438; for G17C A34U, 0.501.
Take C16U C38A: the self-cleavage was found to be 0.73.
For C16U C38U the value was 1.03; for C16U C38G, 0.717; for C16U A37U, 0.848.
Regarding C16U A37C, the self-cleavage worked out at 0.843.
